Test results: paper PMC4515812

Target: Sp1 (recombinant, Sigma-Aldrich SRP2030) (UniProt P08047 1-785)
Test: EMSA

Sp1 (recombinant, Sigma-Aldrich SRP2030), sequence (P08047 whole entry): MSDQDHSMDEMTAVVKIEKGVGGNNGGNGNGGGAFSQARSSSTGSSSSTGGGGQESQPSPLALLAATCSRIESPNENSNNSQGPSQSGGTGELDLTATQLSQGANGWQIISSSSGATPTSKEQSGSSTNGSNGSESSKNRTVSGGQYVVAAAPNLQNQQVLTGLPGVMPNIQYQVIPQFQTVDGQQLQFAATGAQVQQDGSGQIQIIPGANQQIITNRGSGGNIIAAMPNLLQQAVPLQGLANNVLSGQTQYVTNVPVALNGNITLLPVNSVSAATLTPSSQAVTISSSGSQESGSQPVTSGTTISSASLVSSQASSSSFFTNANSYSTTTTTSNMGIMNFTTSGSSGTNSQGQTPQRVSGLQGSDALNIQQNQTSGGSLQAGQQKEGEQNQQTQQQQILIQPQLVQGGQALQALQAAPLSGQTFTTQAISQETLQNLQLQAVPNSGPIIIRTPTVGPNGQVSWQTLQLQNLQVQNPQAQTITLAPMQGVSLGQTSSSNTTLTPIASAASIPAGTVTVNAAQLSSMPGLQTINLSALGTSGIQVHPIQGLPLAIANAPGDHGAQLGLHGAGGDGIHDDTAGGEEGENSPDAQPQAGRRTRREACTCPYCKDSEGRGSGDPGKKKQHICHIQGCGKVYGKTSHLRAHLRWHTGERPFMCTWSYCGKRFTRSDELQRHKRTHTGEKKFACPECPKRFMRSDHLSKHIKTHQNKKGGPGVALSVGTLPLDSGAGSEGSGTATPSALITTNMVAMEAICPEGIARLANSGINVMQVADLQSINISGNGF

B1: Sp1 site -336/-315 probe (Sp1_EMSA3) (dsDNA)
DNA 1: GGGGGCCTCGCCCCTTTGGGGC
DNA 2: GCCCCAAAGGGGCGAGGCCCCC
  binding result: binds

B2: Sp1 site -403/-382 probe (Sp1_EMSA2) (dsDNA)
DNA 1: CGGGGCCCCGCCCGGGCCAGCC
DNA 2: GGCTGGCCCGGGCGGGGCCCCG
  binding result: binds

B3: Sp1 consensus probe (Sp1_EMSA1) (dsDNA)
DNA 1: ATTCGATCGGGGCGGGGCGAGC
DNA 2: GCTCGCCCCGCCCCGATCGAAT
  binding result: binds
